Measurements reported in paper PMC6959987.

How the values were obtained:
[1] = target: Augmin-GFP (purified mitotic Augmin complex) (Drosophila | Drosophila (endogenous in embryos)) (UniProt Q9W0G7)
[2] = target: Augmin-GFP (purified mitotic Augmin complex) (Drosophila | Drosophila (endogenous in embryos)) (UniProt Q9W0G7); assay: fluorescence microscopy of junctions between microtubules loaded with purified complexes; as the junction assay, but with HiLyte 647-labelled GMPCPP MT seeds (1:10) to mark the minus ends
[3] = target: Augmin-GFP (purified mitotic Augmin complex) (Drosophila | Drosophila (endogenous in embryos)) (UniProt Q9W0G7); assay: fluorescence microscopy of junctions between microtubules loaded with purified complexes; taxol-stabilised Rhodamine-MTs incubated with γ-TuRC-GFP and HiLyte Fluor 488-MTs incubated with Augmin-GFP, each pelleted through 15% glycerol, mixed 1:1 for 10 min at room temperature, fixed and …

What does the source list for “γ-TuRC-GFP (purified mitotic γ-Tubulin Ring Complex) (from UniProt P42271 1-457; P42271 1-457)”?
x50 (time at which 50% of Tubulin polymerisation was achieved) with Augmin-GFP added to γ-TuRC-GFP; γ-TuRC-GFP alone 16.5 mins, control 31.5mins [1]: 9.5 min; percent of γ-TuRC-RhodMTs generating branches on Augmin-488MTs [2]: 64%; percent of γ-TuRC-containing RhodMTs that terminate at an Augmin-containing 488MT [3]: 55%
